Test results from publication PMC11804907.

Legend:
Assay in all cases: synthetic bead recruitment assay in embryos (fluorescence intensity at ALFA-tag-Nanobody-coupled beads)
mCherry-TACC = mCherry-TACC (UniProt Q9VN51); settings: beads injected into embryos expressing mCherry-TACC and AurA-GFP with mRNA encoding ALFA-tagged Spd-2; beads-only background est. 0.65; parent: est. 2.0; read off a plot
Polo-GFP = Polo-GFP (UniProt P52304); settings: beads injected into embryos expressing RFP-Cnn and Polo-GFP with mRNA encoding ALFA-tagged Spd-2; beads-only background est. 1.0; parent: est. 2.0; read off a plot
RFP-Cnn = RFP-Cnn (UniProt P54623); settings: beads injected into embryos expressing RFP-Cnn and Polo-GFP with mRNA encoding ALFA-tagged Spd-2; beads-only background est. 0.75; parent: est. 2.4; read off a plot
AurA-GFP = AurA-GFP (UniProt Q27393); settings: beads injected into embryos expressing mCherry-TACC and AurA-GFP with mRNA encoding ALFA-tagged Spd-2; beads-only background est. 0.5; parent: est. 2.1; read off a plot
UniProt Q27393, sequence (Q27393 entry or part of it): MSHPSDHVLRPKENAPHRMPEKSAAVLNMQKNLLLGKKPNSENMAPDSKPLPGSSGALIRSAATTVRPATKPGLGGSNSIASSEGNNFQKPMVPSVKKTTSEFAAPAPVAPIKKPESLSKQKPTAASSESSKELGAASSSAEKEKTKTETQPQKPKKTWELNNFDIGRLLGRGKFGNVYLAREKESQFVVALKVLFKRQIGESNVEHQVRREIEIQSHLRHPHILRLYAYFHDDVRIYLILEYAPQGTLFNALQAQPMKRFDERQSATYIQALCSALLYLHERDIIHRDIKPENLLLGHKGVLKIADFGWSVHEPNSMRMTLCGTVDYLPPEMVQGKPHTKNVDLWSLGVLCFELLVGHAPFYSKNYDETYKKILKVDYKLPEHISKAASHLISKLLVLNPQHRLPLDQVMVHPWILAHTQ

UniProt P52304, sequence (P52304 whole entry): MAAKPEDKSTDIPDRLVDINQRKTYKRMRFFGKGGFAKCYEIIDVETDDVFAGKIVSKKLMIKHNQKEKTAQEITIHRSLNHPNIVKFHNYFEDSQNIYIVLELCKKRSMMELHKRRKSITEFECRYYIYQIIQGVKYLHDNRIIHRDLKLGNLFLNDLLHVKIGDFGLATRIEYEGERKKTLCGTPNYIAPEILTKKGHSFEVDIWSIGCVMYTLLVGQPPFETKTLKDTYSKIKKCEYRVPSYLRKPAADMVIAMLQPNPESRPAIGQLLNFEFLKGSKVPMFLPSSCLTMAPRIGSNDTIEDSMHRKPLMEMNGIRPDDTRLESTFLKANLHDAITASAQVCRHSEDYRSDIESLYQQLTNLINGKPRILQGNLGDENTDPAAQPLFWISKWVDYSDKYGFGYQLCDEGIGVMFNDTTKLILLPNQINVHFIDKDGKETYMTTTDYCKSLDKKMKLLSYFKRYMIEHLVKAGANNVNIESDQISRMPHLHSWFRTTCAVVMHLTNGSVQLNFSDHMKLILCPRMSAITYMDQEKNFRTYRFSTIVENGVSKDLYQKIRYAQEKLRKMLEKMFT
UniProt Q9VN51, sequence (Q9VN51 entry or part of it): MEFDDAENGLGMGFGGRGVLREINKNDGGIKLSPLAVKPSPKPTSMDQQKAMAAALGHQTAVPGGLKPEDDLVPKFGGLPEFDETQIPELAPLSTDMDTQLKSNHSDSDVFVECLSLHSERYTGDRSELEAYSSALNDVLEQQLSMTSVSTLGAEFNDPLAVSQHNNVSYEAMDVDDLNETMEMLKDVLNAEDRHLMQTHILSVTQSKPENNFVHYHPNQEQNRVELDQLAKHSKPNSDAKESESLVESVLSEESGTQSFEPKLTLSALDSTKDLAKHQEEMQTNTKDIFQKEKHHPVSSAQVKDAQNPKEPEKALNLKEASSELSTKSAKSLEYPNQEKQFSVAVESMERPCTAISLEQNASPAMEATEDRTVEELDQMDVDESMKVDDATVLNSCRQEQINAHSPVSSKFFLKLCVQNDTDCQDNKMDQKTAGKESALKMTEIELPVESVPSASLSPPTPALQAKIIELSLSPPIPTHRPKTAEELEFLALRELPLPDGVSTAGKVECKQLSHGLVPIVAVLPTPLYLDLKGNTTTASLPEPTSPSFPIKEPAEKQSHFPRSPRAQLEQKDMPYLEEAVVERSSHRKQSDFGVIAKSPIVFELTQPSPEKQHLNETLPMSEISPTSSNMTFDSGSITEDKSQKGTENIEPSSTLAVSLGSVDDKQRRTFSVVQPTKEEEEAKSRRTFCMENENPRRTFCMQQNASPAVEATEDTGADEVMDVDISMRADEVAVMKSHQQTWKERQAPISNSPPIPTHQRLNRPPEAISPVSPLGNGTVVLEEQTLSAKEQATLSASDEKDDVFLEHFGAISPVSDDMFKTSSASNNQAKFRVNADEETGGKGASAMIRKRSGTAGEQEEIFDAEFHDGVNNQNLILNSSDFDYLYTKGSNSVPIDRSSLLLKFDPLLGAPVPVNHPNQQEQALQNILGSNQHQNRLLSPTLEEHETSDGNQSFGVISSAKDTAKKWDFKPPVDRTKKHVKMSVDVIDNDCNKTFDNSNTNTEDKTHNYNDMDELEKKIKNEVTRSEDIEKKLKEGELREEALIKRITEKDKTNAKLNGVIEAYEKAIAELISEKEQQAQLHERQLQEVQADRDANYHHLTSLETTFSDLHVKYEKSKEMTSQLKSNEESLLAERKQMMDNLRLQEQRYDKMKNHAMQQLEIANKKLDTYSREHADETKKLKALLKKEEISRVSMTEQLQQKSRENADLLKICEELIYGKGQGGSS
UniProt P54623, sequence (P54623 whole entry): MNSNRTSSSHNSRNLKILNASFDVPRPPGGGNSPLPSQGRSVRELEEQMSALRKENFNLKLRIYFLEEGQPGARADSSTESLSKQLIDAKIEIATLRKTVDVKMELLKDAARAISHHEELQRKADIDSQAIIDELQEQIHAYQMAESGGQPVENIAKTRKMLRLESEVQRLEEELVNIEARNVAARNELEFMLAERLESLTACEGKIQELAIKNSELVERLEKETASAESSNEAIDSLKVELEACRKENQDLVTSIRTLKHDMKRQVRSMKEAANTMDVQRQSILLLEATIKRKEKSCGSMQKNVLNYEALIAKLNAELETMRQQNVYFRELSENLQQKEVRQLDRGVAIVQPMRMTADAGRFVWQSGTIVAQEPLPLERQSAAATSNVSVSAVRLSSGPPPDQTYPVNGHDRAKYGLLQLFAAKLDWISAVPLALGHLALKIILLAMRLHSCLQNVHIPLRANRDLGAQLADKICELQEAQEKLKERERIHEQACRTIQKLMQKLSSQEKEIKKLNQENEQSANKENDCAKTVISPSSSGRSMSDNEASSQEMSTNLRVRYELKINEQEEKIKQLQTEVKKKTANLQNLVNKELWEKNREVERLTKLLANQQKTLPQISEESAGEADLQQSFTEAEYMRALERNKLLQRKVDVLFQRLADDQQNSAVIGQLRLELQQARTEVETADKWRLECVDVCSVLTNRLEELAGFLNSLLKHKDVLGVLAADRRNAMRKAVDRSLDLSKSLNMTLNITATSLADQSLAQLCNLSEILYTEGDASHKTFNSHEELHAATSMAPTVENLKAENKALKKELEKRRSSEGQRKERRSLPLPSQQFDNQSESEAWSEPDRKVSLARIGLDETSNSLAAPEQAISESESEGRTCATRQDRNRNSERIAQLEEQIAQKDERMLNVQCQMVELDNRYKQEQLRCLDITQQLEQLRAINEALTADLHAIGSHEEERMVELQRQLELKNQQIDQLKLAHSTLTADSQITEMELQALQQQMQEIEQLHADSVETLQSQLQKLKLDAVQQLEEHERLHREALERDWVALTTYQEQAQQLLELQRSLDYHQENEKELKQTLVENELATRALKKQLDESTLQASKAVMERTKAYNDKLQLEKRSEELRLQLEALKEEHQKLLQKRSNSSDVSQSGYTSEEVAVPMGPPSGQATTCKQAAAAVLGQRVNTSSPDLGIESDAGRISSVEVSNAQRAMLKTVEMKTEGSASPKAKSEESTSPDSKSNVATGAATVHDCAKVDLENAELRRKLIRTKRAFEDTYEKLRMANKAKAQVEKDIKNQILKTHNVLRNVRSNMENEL

WT Spd-2-ALFA (from UniProt Q9VV79) ∆Polo (all 34 S-S/T motifs mutated to T-S/T; individual positions not printed)
response (mCherry-TACC): 2.3 A.U. | response (Polo-GFP): 0.95 A.U. | response (RFP-Cnn): 0.85 A.U. | response (AurA-GFP): 2.3 A.U.
